Target: Fy-1 (TBCK);Fy-2 (PPP1R21);Fy-3 (C12orf4);Fy-4 (CRYZL1);Fy-5 (GATD1) (Homo sapiens;Homo sapiens;Homo …, UniProt Q8TEA7;Q6ZMI0;Q9NQ89;O95825;Q8NB37 1-893;1-780;1-552;1-349;1-220, ||||)
Test: EMSA

| Binder | binding result |
| --- | --- |
| atp5f1b (atp5b) 3'UTR-50A (ssRNA) RNA: GGGGGGGUCUUUGUCCUCUGUACUGUCUCUCUCCUUGCCCCUAACCCAAAAAGCUUCAUUUUUCUGUGUAGGCUGCACAAGAGCCUUGAUUGAAGAUAUAUUCUUUCUGAACAGUAUUUAAGGUUUCCAAUAAAAUGUACACCCCUCAGAAAAAAAAAAAAAAAAAAAAAAAAAAAAAAAAAAAAAAAAAAAAAAAAAAAAGCGGCCGC | no binding |
| mrpl41 5'UTR (ssRNA) RNA: GGGGCUCUUGCUGCGACGCAGCGGUCGGAAGCGGAGCAAGGUCGAGGCCGGGUUGGCGCCGGAGCCGGGGCCGCUUGGAGCUCGUGUGGGGUCUCCGGUCCAGGGCGCGGCGCGGCCGC | no binding |

Target: T1, His6-Fy-1 (Tbck), subunit of the reconstituted FERRY complex (human, UniProt Q8TEA7 1-893)
T1 sequence (looked up): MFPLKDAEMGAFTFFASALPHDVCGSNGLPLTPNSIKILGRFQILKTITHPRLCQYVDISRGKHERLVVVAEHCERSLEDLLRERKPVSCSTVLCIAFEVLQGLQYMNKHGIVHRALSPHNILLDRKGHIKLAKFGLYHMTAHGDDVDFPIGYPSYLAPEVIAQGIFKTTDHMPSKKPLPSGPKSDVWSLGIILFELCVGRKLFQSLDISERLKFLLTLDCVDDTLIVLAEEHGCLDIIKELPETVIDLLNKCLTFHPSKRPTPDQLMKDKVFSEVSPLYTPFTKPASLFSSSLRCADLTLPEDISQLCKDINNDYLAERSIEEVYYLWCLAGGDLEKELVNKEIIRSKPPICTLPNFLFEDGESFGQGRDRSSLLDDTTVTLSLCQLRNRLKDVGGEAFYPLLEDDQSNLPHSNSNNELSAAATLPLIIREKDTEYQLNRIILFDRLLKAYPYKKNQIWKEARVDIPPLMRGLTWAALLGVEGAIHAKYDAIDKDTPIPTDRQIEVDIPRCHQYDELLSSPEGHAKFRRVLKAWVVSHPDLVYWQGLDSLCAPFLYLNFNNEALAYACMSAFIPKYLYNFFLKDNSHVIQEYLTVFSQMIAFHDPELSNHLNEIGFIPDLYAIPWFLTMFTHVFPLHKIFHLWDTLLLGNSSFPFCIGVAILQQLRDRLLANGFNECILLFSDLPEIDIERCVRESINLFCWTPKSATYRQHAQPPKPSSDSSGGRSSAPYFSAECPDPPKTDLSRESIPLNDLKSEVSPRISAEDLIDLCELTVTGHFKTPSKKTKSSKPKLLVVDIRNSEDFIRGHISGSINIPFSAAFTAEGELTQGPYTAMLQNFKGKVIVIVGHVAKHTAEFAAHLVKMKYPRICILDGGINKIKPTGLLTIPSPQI
Test: SEC

| Binder | stoichiometry N |
| --- | --- |
| His6-Fy-5 (Gatd1) (natural protein, human, UniProt Q8NB37 1-220, looked up) MASERLPNRPACLLVASGAAEGVSAQSFLHCFTMASTAFNLQVATPGGKAMEFVDVTESNARWVQDFRLKAYASPAKLESIDGARYHALLIPSCPGALTDLASSGSLARILQHFHSESKPICAVGHGVAALCCATNEDRSWVFDSYSLTGPSVCELVRAPGFARLPLVVEDFVKDSGACFSASEPDAVHVVLDRHLVTGQNASSTVPAVQNLLFLCGSRK | 4 |
| Fy-2 (Ppp1r21), untagged subunit of the reconstituted FERRY complex (natural protein, human, UniProt Q6ZMI0 1-780, looked up) MASAELQGKYQKLAQEYSKLRAQNQVLKKGVVDEQANSAALKEQLKMKDQSLRKLQQEMDSLTFRNLQLAKRVELLQDELALSEPRGKKNKKSGESSSQLSQEQKSVFDEDLQKKIEENERLHIQFFEADEQHKHVEAELRSRLATLETEAAQHQAVVDGLTRKYMETIEKLQNDKAKLEVKSQTLEKEAKECRLRTEECQLQLKTLHEDLSGRLEESLSIINEKVPFNDTKYSQYNALNVPLHNRRHQLKMRDIAGQALAFVQDLVTALLNFHTYTEQRIQIFPVDSAIDTISPLNQKFSQYLHENASYVRPLEEGMLHLFESITEDTVTVLETTVKLKTFSEHLTSYICFLRKILPYQLKSLEEECESSLCTSALRARNLELSQDMKKMTAVFEKLQTYIALLALPSTEPDGLLRTNYSSVLTNVGAALHGFHDVMKDISKHYSQKAAIEHELPTATQKLITTNDCILSSVVALTNGAGKIASFFSNNLDYFIASLSYGPKAASGFISPLSAECMLQYKKKAAAYMKSLRKPLLESVPYEEALANRRILLSSTESREGLAQQVQQSLEKISKLEQEKEHWMLEAQLAKIKLEKENQRIADKLKNTGSAQLVGLAQENAAVSNTAGQDEATAKAVLEPIQSTSLIGTLTRTSDSEVPDVESREDLIKNHYMARIVELTSQLQLADSKSVHFYAECRALSKRLALAEKSKEALTEEMKLASQNISRLQDELTTTKRSYEDQLSMMSDHLCSMNETLSKQREEIDTLKMSSKGNSKKNKSR | 2 |
| His6-Fy-4 (Cryzl1) (natural protein, human, UniProt O95825 1-349, looked up) MKGLYFQQSSTDEEITFVFQEKEDLPVTEDNFVKLQVKACALSQINTKLLAEMKMKKDLFPVGREIAGIVLDVGSKVSFFQPDDEVVGILPLDSEDPGLCEVVRVHEHYLVHKPEKVTWTEAAGSIRDGVRAYTALHYLSHLSPGKSVLIMDGASAFGTIAIQLAHHRGAKVISTACSLEDKQCLERFRPPIARVIDVSNGKVHVAESCLEETGGLGVDIVLDAGVRLYSKDDEPAVKLQLLPHKHDIITLLGVGGHWVTTEENLQLDPPDSHCLFLKGATLAFLNDEVWNLSNVQQGKYLCILKDVMEKLSTGVFRPQLDEPIPLYEAKVSMEAVQKNQGRKKQVVQF | 2 |
| Fy-3 (C12orf4), untagged subunit of the recombinant FERRY and GST-FERRY complexes (natural protein, human, UniProt Q9NQ89 1-552, looked up) MKKNRERFCNREREFVYKFKVGSQCLELRVPLKFPVQENASHLHGRLMLLHSLPCFIEKDLKEALTQFIEEESLSDYDRDAEASLAAVKSGEVDLHQLASTWAKAYAETTLEHARPEEPSWDEDFADVYHDLIHSPASETLLNLEHNYFVSISELIGERDVELKKLRERQGIEMEKVMQELGKSLTDQDVNSLAAQHFESQQDLENKWSNELKQSTAIQKQEYQEWVIKLHQDLKNPNNSSLSEEIKVQPSQFRESVEAIGRIYEEQRKLEESFTIHLGAQLKTMHNLRLLRADMLDFCKHKRNHRSGVKLHRLQTALSLYSTSLCGLVLLVDNRINSYSGIKRDFATVCQECTDFHFPRIEEQLEVVQQVVLYARTQRRSKLKESLDSGNQNGGNDDKTKNAERNYLNVLPGEFYITRHSNLSEIHVAFHLCVDDHVKSGNITARDPAIMGLRNILKVCCTHDITTISIPLLLVHDMSEEMTIPWCLRRAELVFKCVKGFMMEMASWDGGISRTVQFLVPQSISEEMFYQLSNMLPQIFRVSSTLTLTSKH | 1 |

From paper doi:10.1101/2021.06.20.449167 (bioRxiv, 2021)
